The record followed here is patent US20110182904A1 (published 2011).

For assay [1], the target named is T1, human bone morphogenic protein 2 (BMP2) (human, UniProt P12643 283-396, Disulfide-linked homodimer of this chain (non-reduced band of about 36 kDa, monomers of 17-18 kDa); one copy is given.).
T1 construct: Bought recombinant human BMP2 (R&D Systems or Medtronic); also called recombinant human BMP2
In words: SPR (Biacore); mAb captured via anti-human Fc, BMP flowed at 10 nM. The method, then: (§1) The antigen-antibody association kinetics was followed for 2 minutes and the dissociation kinetics was followed for 8 minutes. The association and dissociation curves were fit to a 1:1 Langmuir binding model using BIAevaluation software (Biacore, AB).
For orientation: Surface plasmon resonance follows binding to a sensor surface in real time, without labels.

The target in assay [2] is T2, human bone morphogenic protein 4 (BMP4) (human, UniProt P12644 293-408).
T2 construct: Bought recombinant human BMP4 (R&D Systems); also called recombinant human BMP4
T2 sequence: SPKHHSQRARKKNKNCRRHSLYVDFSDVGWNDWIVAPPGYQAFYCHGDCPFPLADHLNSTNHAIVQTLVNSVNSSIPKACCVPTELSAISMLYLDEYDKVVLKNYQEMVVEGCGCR
The assay is described as above. The method, then: as §1

Assay [3] addresses T3, BMP2 epitope peptide ISMLYLDENEKVVLK (SEQ ID NO:92) (human, also: biotin conjugated, site not given here).
T3 construct: Biotinylated peptide captured on a streptavidin chip
T3 peptide: ISMLYLDENEKVVLK
In words: SPR (Biacore); biotinylated peptide on streptavidin chip, antibody at 40 ug/ml.

In assay [4] the target is T2, human bone morphogenic protein 4 (BMP4). In words: Biacore competition: mAb (two-fold series from 400 nM) pre-incubated with BMP4 (3-10 nM), mixture injected over immobilised type II BMP receptor; response = BMP4 binding to the receptor. On the procedure:
Both type-I and type-II BMP receptors were covalently linked to a CM5 chip (carboxy methyl dextran coated chip) via primary amines, using the standard amine coupling chemistry and kit provided by Biacore. Mixtures of antibody-antigen complex were flowed across the immobilized receptors. […] Antibody-antigen mixtures were injected at a flow rate of 5 μl/min for 3 minutes.

The target of assay [5] is T4, BMP2 epitope peptide QAKHKQRKRLKSSCKRH (SEQ ID NO:93) (human, also: biotin conjugated, site not given here).
T4 construct: Biotinylated peptide captured on a streptavidin chip
T4 peptide: QAKHKQRKRLKSSCKRH
Description: SPR (Biacore); biotinylated peptide on streptavidin chip, antibody at 40 ug/ml.

Assay [6] has as its target T1, human bone morphogenic protein 2 (BMP2). Description: cell-based or functional assay.
Assay [7] concerns the target T2, human bone morphogenic protein 4 (BMP4). In words: cell-based or functional assay.

Where no end group is shown, it is not given here.

T1 sequence (P12643 283-396 limits assumed): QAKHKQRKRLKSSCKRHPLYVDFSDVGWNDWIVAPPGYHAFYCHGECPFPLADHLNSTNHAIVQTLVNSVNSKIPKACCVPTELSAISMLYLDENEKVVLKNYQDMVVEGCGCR

B1: 6H4 human monoclonal antibody (antibody, V domains shown)
VH: QVHLQQWGAGLLKPSETLSLTCAVYGGSFSGYYWSWIRQPPGKGLEWIGEINHSGSTNYNPSLKSRVTISVDTSKNQFSLKLSSVTAADTAVYYCAREYYYGSESEYFQHWGQGTLVTVSS
VL: EIVLTQSPATLSLSPGERATLSCRASQSVSSYLAWYQQKPGQAPRLLIYDASNRATGIPARFSGSGSGTDFTLTISSLEPEDFAVYYCQQRSNWPHTFGQGTKLEIK
notes: Human IgG from a HuMAb/KM mouse hybridoma
For B1, in assay [1], binding was characterised by a dissociation constant (Kd) of 0.1 nM, the koff was determined as 0.000198 s⁻¹ and the kon worked out at 1.42e+06 M⁻¹ s⁻¹. In assay [2], this molecule yielded a Kd of 0.3 nM, a koff of 0.000497 s⁻¹ and a kon of 2e+06 M⁻¹ s⁻¹.

B2: 8B3 human monoclonal antibody (antibody, V domains shown)
VH: QVQLVQSGAEVKKPGSSVKVSCKASGGTFSSYAISWVRQAPGQGLEWMGRIIPILGIAQYAQKFQGRVTLTADKSTSTAYMELSSLRSEDTAVYYCARGKDIWGQGTMVTVSS
VL: not shown
notes: as for B1
In assay [1], B2 yielded a Kd of 0.19 nM, a koff of 0.000582 s⁻¹ and a kon of 3.02e+06 M⁻¹ s⁻¹. Also, in assay [2], the Kd stood at 0.18 nM, the koff turned out to be 0.000827 s⁻¹ and the kon was determined as 4.69e+06 M⁻¹ s⁻¹. The binding result in assay [3] is “binds”.

B3: 15F3 human monoclonal antibody (antibody, V domains shown)
VH: QVQLVQSGAEVKKPGSSVKVSCKASGGTFSSYAISWVRQAPGQGLEWMGRIIPILGIAQYAQKFQGRVTLTADKSTNTAYMELSSLRSEDTAVYYCARGKDIWGQGTMVTVSS
VL: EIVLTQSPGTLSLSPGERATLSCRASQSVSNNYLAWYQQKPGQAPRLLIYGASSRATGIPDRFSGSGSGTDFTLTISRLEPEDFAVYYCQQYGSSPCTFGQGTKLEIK
notes: as for B1
In assay [1], B3 gave a Kd of 0.03 nM, a koff of 0.00027 s⁻¹ and a kon of 7.96e+06 M⁻¹ s⁻¹. Further, in assay [2], the Kd stood at 0.18 nM, the koff came out at 0.00056 s⁻¹ and the kon was 3.14e+06 M⁻¹ s⁻¹.

B4: 7D6 human monoclonal antibody (antibody, V domains shown)
VH: QVQLVQSGAEVKKPGSSVKVSCKASGGTFSSYAISWVRQAPGQGLEWMGRIIPILGIVNYAQKFQGRVTITADKSTSTAYMELSSLRSEDTAVYYCARGKDIWGQGTMVTVSS
VL: EIVLTQSPGTLSLSPGERATLSCRASQIVISTYLAWYQQKPGQAPRLLIYGASSRATGIPDRFSGSGSGTDFTLTISRLEPEDFAVYYCQQYGSSPCTFGQGTKLEIK
notes: as for B1
Consider B4, for which, in assay [1], the Kd was determined as 0.28 nM, the koff came out at 0.00114 s⁻¹ and the kon worked out at 4e+06 M⁻¹ s⁻¹. In assay [2], this molecule came in with a Kd of 0.42 nM, a koff of 0.0012 s⁻¹ and a kon of 2.84e+06 M⁻¹ s⁻¹. Also, the binding result in assay [3] was “binds”.

B5: 33F7 human monoclonal antibody (antibody, V domains shown)
VH: QVQLVQSGAEVKKPGSSVKVSCKASGGTFSSYAINWVRQAPGQGLEWMGRLIPILGIANYAQKFQGRVTITADKSTSTAYMELSSLRSEDTAVYYCARGKDIWGQGTMVTVSS
VL: EIVLTQSPGTLSLSPGERVTLSCRASQSVSSNYLAWYQQKPGQAPRLLIKGASSRATGIPDRFSGSGSGTDFTLTISRLEPEDFAVYYCQQYGSSPCTFGQGTKLEIK
notes: as for B1
With B5, in assay [1], binding was characterised by a dissociation constant (Kd) of 0.12 nM, the koff stood at 0.000654 s⁻¹ and the kon was found to be 5.71e+06 M⁻¹ s⁻¹. In assay [2], this molecule returned a Kd of 0.38 nM, a koff of 0.0014 s⁻¹ and a kon of 3.65e+06 M⁻¹ s⁻¹. The “IC50 (read off the curve)” value in assay [4] is ~100 nM.

B6: 12E3 human monoclonal antibody (antibody, V domains shown)
VH: QVQLVESGGGVVQPGRSLRLSCAASGFTFSSYGMHWVRQAPGKGLEWVAVIWDDGRKKYYADSVKGRFTISRDNSKNTLYLQMNSLRAEDTAVYYCAREPAGVWGMDVWGQGTTVTVSS
VL: DIQMTQSPSSLSASVGDRVTITCRASQGISSWLAWYQQKPEKAPKSLIYAASSLQSGVPSRFSGSGSGTDFTLTISSLQPEDFATYYCQQYNSYPLTFGGGTKVEIK
notes: as for B1
In assay [1], B6 registered a Kd of 0.02 nM, a koff of 8.26e-05 s⁻¹ and a kon of 3.39e+06 M⁻¹ s⁻¹. In assay [2], this molecule yielded a dissociation constant (Kd) of 0.28 nM, a koff of 0.000482 s⁻¹ and a kon of 1.75e+06 M⁻¹ s⁻¹. For the same molecule, the binding result in assay [5] was “binds”. The “IC50 (read off the curve)” value in assay [4] is ~20 nM.

B7: 16B7 human monoclonal antibody (antibody, V domains shown)
VH: QVQLVESGGGVVQPGRSLRLSCAASGFTFSNYGIHWVRQAPGKGLEWVAVIWYDGSHKYYADSMKGRFTISRDNSKNTLDLQMNSLRAEDTAVYYCARGSSSWYFDLWGRGTLVTVSS
VL: DIQMTQSPSSLSASVGDRVTITCRASQGISSWLAWYQQKPEKAPKSLIYAASSLQSGVPSRFSGSGSGTDFTLTISSLQPEDFATYYCQQYNSYPLTFGGGTKVEIK
notes: as for B1
For the molecule B7, in assay [1], the Kd stood at 0.08 nM, the koff was 0.000282 s⁻¹ and the kon came to 3.7e+06 M⁻¹ s⁻¹. In assay [2], this molecule gave a Kd of 0.02 nM, a koff of 6.12e-05 s⁻¹ and a kon of 2.86e+06 M⁻¹ s⁻¹. For the same molecule, the binding result in assay [5] was “binds”.

B8: 10F6 human monoclonal antibody (antibody, V domains shown)
VH: QVQLVESGGGVVQPGRSLRLSCAASGFTFRSYGIHWVRQAPGKGLEWVAVIWYDGSHKYYADSVKGRFTISRDNSKNTLDLQMNSLRAEDTAVYYCVRGSSNWYFDYWGQGTLVTVSS
VL: DIQMTQSPSSLSASVGDRVTITCRASQGISSWLAWYQQKPEKAPKSLIYAASSLQSGVPSRFSGSGSGTDFTLTISSLQPEDFATYYCQQYNSYPLTFGGGTKVEIK
notes: as for B1
Regarding B8, in assay [1], binding was put at a Kd of 0.19 nM, the dissociation rate constant (koff) came out at 0.000385 s⁻¹ and the kon is 2.04e+06 M⁻¹ s⁻¹. In assay [2], this molecule registered a dissociation constant Kd of 0.75 nM, a koff of 0.00197 s⁻¹ and a kon of 2.61e+06 M⁻¹ s⁻¹.

B9: 1F6 human monoclonal antibody (antibody, V domains shown)
VH: QVQLQESGPGLVKPSETLSLTCTVSGDSISSYYWSWIRQPPGKGLEWIGYIYYSGSTRYNPPLKSRVTISVDTSKNQFSLKLSSVTAADTAVYYCARICSSTSCWGWFDPWGQGTLVTVSS
VL: not shown
notes: as for B1
In assay [1], B9 showed a Kd of 0.02 nM, a koff of 8.49e-05 s⁻¹ and an on-rate constant (kon) of 4.65e+06 M⁻¹ s⁻¹. In assay [2], the affinity, expressed as Kd, was 0.0003 nM; the koff amounted to 1.27e-06 s⁻¹; the kon was 4.97e+06 M⁻¹ s⁻¹.

B10: 11F2 human monoclonal antibody (antibody, V domains shown)
VH: QVQLQESGPGLVKPSETLSLTCTVSGDSIRSYYWSWIRQPPGKGLEWIGYIYYRGSTHYNPSLKSRVTISVDTSKNQFSLKMSSVTAADTAVYYCARICSSISCWGWFDPWGQGTLVTVSS
VL: not shown
notes: as for B1
Regarding B10, the “IC50 (read off the curve)” value in assay [6] is ~3 µg/mL. In addition, in assay [7], the “IC50 (read off the curve)” value was ~3 µg/mL. Moreover, in assay [1], binding was characterised by a dissociation constant (Kd) of 0.01 nM, the koff was 3.09e-05 s⁻¹ and the kon stood at 2.83e+06 M⁻¹ s⁻¹. In assay [2], the affinity, expressed as Kd, was 0.0007 nM; the koff was determined as 3.04e-08 s⁻¹; the kon was 45300 M⁻¹ s⁻¹. Moreover, in assay [5], the binding result was “binds”.

The Kd is the concentration at which binding is half-saturated. Lower therefore signals a tighter complex. In general, koff refers to the first-order rate constant of dissociation. The low end stands for slow dissociation, the high end for fast dissociation. In general, kon refers to the rate constant with which the complex forms. A lower kon goes with slower complex formation.
